In publication PMC8325564:

Substrate: Nc1nc2c(ncn2[C@@H]2O[C@H](COP(=O)(O)OP(=O)(O)OP(=O)(O)O)[C@@H](O)[C@H]2O)c(=O)[nH]1
Assay: coupled enzymatic assay of AK3 activity
Assay type: biochemical, human
Conditions: other: GTP as varied substrate, 300 μM AMP, 2 mM MgCl2

B1: human AK3 (Homo sapiens) (protein)
chain: MGASARLLRAVIMGAPGSGKGTVSSRITTHFELKHLSSGDLLRDNMLRGTEIGVLAKAFIDQGKLIPDDVMTRLALHELKNLTQYSWLLDGFPRTLPQAEALDRAYQIDTVINLNVPFEVIKQRLTARWIHPASGRVYNIEFNPPKTVGIDDLTGEPLIQREDDKPETVIKRLKAYEDQTKPVLEYYQKKGVLETFSGTETNKIWPYVYAFLQTKVPQRSQKASVTP
In the case of B1, the Km is reported as 10 ± 1.5 µM and the kcat/Km is reported as 5.7e+06 ± 900000 M⁻¹ s⁻¹.
